In patent US20180009889A1 (Novartis, published 2018):
Where a chain is given by its changes, count along the chain named.

How the values were obtained:
EGF32 NRR (mouse) [1] = target: T1, EGF32 NRR (mouse) (mouse, UniProt Q61982); assay: ELISA: IgG titrated on directly coated recombinant antigen
T1 construct: recombinant, C-terminal six histidine tag

EGF32 NRR (human) [2] = assay: as above
EGF32 NRR (cyno) [3] = target: T2, EGF32 NRR (cyno) (cynomolgus monkey); assay: as above
T2 construct: recombinant, C-terminal six histidine tag

EGF32 NRR (mouse) [4] = target: T1, EGF32 NRR (mouse); assay: Biacore (SPR); set-up not stated on the sheet
EGF32 NRR (human) [5] = assay: Biacore (SPR); set-up not stated on the sheet
EGF32 NRR (cyno) [6] = target: T2, EGF32 NRR (cyno); assay: Biacore (SPR); set-up not stated on the sheet
[7] = target: T3, Human Notch 3 (wild type) (human, UniProt Q9UM47 40-2321); assay: FACS on U2OS_N3 cells, with U2OS_parental cells as control
T3 construct: also called Notch 3 receptor

Human Notch3-Gal4-VP16 [8] = target: Human Notch3-Gal4-VP16 (human); assay: cell-based or functional assay
EGF32 NRR (cyno) [9] = target: T2, EGF32 NRR (cyno); assay: ELISA: IgG titrated on directly coated recombinant antigen; remark: listed apart in the source
[10] = target: T4, Human Notch3 Negative Regulatory Region (NRR), residues 1378 to 1640 of human Notch3, with C-terminal His tag (human, UniProt Q9UM47 1378-1640); assay: HDx-MS without Ca2+, IgG with Notch 3 NRR
T4 construct: also called Notch3 NRR; Notch 3 NRR

[11] = target: T5, ICD3 of MDA-MB468 cells (frame-shift mutation at amino acid 2034, premature stop) (human); assay: Western blot of MDA-MB468 cell lysates
T5 construct: also called smaller ICD3; faster migrating ICD3
T5 chain: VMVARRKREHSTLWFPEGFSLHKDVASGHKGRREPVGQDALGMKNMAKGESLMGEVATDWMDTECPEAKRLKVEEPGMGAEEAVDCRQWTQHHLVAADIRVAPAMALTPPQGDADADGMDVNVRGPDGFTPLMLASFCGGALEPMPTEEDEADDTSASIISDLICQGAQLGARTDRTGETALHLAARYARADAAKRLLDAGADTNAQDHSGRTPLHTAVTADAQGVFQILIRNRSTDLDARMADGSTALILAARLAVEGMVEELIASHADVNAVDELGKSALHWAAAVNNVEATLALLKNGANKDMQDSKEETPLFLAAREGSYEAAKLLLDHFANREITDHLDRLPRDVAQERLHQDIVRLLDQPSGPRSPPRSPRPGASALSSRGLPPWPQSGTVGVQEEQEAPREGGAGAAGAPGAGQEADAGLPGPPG

[12] = target: T6, Gamma secretase cleaved form of the Notch3 intracellular domain (ICD3) (human, UniProt Q9UM47 1662-2321); assay: Western blot of TALL-1 cell lysates with hybridoma sub-clone supernatant
T6 construct: also called Notch3 ICD
T6 sequence: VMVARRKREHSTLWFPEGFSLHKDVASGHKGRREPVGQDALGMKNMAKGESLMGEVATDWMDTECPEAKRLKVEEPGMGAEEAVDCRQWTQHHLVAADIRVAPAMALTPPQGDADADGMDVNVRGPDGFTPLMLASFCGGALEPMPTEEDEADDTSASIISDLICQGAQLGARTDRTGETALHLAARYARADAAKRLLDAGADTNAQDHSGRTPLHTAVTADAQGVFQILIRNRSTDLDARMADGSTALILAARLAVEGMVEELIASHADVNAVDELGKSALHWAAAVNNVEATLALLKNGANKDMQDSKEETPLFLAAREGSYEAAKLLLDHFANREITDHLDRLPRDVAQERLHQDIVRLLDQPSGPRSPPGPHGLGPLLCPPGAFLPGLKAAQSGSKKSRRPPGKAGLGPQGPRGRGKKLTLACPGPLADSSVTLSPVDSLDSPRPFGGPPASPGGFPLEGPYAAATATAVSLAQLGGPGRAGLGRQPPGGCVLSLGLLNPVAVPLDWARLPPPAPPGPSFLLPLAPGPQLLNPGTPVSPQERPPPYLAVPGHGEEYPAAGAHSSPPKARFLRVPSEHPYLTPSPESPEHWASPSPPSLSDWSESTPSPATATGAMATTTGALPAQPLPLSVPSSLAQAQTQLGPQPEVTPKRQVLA

[13] = target: T7, Notch1 intracellular domain (ICD1) (UniProt P46531 1754-2555); assay: Western blot of lysates of T-cell acute lymphoblastic leukemia cell lines
T7 construct: domain: Notch1 intracellular domain (ICD1)
T7 sequence (P46531 1754-2555 limits assumed): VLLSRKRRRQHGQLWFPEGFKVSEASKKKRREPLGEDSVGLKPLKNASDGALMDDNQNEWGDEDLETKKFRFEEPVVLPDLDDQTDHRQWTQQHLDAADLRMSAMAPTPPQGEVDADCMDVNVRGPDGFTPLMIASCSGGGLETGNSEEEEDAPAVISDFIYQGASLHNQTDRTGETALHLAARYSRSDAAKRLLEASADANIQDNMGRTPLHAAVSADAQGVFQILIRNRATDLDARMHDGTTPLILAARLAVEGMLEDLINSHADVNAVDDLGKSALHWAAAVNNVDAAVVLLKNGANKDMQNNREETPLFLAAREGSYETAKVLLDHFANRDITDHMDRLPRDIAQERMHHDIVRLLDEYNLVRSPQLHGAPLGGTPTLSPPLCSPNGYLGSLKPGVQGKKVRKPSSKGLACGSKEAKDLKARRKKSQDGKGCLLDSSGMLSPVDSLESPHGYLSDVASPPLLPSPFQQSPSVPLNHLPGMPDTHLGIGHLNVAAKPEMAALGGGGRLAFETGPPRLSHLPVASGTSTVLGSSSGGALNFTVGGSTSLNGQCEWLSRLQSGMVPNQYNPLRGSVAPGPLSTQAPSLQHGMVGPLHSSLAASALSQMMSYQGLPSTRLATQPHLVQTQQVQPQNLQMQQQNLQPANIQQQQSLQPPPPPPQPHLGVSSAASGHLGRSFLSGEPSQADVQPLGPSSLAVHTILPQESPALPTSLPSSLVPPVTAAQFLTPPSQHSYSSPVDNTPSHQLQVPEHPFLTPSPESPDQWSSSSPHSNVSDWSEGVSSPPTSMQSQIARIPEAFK

cyno LBD [14] = target: T8, cyno LBD; assay: ELISA: IgG titrated on directly coated recombinant antigen
T8 construct: also called N3_EGF4-11_Fc cyno

Human Notch3-Gal4-VP16 [15] = target: Human Notch3-Gal4-VP16 (human); assay: cell-based or functional assay; remark: listed apart in the source
cyno LBD [16] = target: T8, cyno LBD; assay: ELISA: IgG titrated on directly coated recombinant antigen; remark: listed apart in the source
Human Notch3-Gal4-VP16 [17] = target: Human Notch3-Gal4-VP16 (human); assay: cell-based or functional assay; remark: listed apart in the source
cyno LBD [18] = target: T8, cyno LBD; assay: Biacore (SPR); set-up not stated on the sheet
[19] = target: T3, Human Notch 3 (wild type); assay: FACS on U2OS_N3 cells (U2OS over-expressing human Notch3)

B1: 12215 (antibody, human IgG1, kappa, V domains shown)
VH: QVQLVESGGGLVKPGGSLRLSCAASGFTFSTYVMHWVRQAPGKGLEWVGRIRSNTYGGITDYAAPVKGRFTISRDDSKNTLYLQMNSLKTEDTAVYYCARAEARYRDVWGQGTLVTVSS
VL: DIQMTQSPSSLSASVGDRVTITCRASQSISSHLNWYQQKPGKAPKLLIYAASNLQSGVPSRFSGSGSGTDFTLTISSLQPEDFATYYCQQDYHTPFTFGQGTKVEIKR
notes: also called MOR 12215
EC50 (EGF32 NRR (mouse) [1]): 2.2 nM | EC50 (EGF32 NRR (human) [2]): 0.9 nM | EC50 (EGF32 NRR (cyno) [3]): 0.6 nM | Kd (EGF32 NRR (mouse) [4]): 1 nM | Kd (EGF32 NRR (human) [5]): 0.9 nM | Kd (EGF32 NRR (cyno) [6]): 2.7 nM | EC50 (read off the curve) [7]: ~0.5 nM | % inhibition, Delta 1 co-culture Notch3 reporter gene assay (Human Notch3-Gal4-VP16 [8]): -1% | % inhibition, Jagged1 co-culture Notch3 reporter gene assay (Human Notch3-Gal4-VP16 [8]): -5%

B2: 12981 (antibody, human IgG1, kappa, V domains shown)
VH: QVQLVQSGAEVKKPGSSVKVSCKASGGTFRTYAMHWVRQAPGQGLEWMGGIIPIFGIANYAQKFQGRVTITADESTSTAYMELSSLRSEDTAVYYCARDDYSTYAFAYWGQGTLVTVSS
VL: B1 VL with S30A, H32Y, N34A, A50D, D91A, H93K, F96Y
notes: also called MOR 12981
EC50 (EGF32 NRR (cyno) [3]): 0.4 nM | Kd (EGF32 NRR (cyno) [6]): 19 nM | % inhibition, Delta 1 co-culture Notch3 reporter gene assay (Human Notch3-Gal4-VP16 [8]): 16% | % inhibition, Jagged1 co-culture Notch3 reporter gene assay (Human Notch3-Gal4-VP16 [8]): 56% | IC50, Delta 1 co-culture Notch3 reporter gene assay (Human Notch3-Gal4-VP16 [8]): 22 nM | IC50, Jagged1 co-culture Notch3 reporter gene assay (Human Notch3-Gal4-VP16 [8]): 0.2 nM | EC50 (read off the curve) (EGF32 NRR (cyno) [9]): ~0.6 nM

B3: 20358 (antibody, human IgG1, kappa, V domains shown)
VH: B2 VH with I52V, I54Y, F55H, A58T, N59D
VL: B1 VL with S30A, H32Y, N34A, A50D, D91A, H93K, F96Y
EC50 (EGF32 NRR (cyno) [3]): 0.5 nM | Kd (EGF32 NRR (mouse) [4]): 70 nM | Kd (EGF32 NRR (cyno) [6]): 2.7 nM

B4: 20337 (antibody, human IgG1, kappa, V domains shown)
VH: B1 VH with S53A, T55A, I59A, T60A
VL: B1 VL
EC50 (EGF32 NRR (mouse) [1]): 0.7 nM | EC50 (EGF32 NRR (human) [2]): 0.8 nM | EC50 (EGF32 NRR (cyno) [3]): 0.6 nM | Kd (EGF32 NRR (mouse) [4]): 4.4 nM | Kd (EGF32 NRR (human) [5]): 0.5 nM | Kd (EGF32 NRR (cyno) [6]): 0.4 nM | % inhibition, Delta 1 co-culture Notch3 reporter gene assay (Human Notch3-Gal4-VP16 [8]): 18% | % inhibition, Jagged1 co-culture Notch3 reporter gene assay (Human Notch3-Gal4-VP16 [8]): 60% | IC50, Delta 1 co-culture Notch3 reporter gene assay (Human Notch3-Gal4-VP16 [8]): 6.4 nM | IC50, Jagged1 co-culture Notch3 reporter gene assay (Human Notch3-Gal4-VP16 [8]): 4.6 nM | binding result [10]: binds

B5: ICD3 Ab (antibody, V domains shown)
VH: QSLEESGGDLVKPGASLTLTCTASGFSFTKNAYMCWDRQAPGKRPEWIACIETGDGTTYYASWAKGRFTVSKTSSTTVTLQMTSLTAADTATYFCARELYDDYGDYFNLWGPGTLVTVSS
VL: ALVMTQTPSSVSAAVGGTVTINCQTSENFYSNDILSWYQQKPGQPPKLLIYEASTLASGVPSRFKGSGSGTQFTLTISDVQCDDAATYYCQGSVLDSGWYDISFGGGTEVVVKG
notes: also called ICD3 antibody
binding result [11]: binds | binding result [12]: binds | binding result [13]: no binding (tested: 1:5000 dilution)

B6: 12229 (antibody, human IgG1, lambda, V domains shown)
VH: QVQLVESGGGLVKPGGSLRLSCAASGFTFSSYTMNWVRQAPGKGLEWVGRIKTKTNGGTTDYAAPVKGRFTISRDDSKNTLYLQMNSLKTEDTAVYYCARERSRAGSIFDPWGQGTLVTVSS
VL: DIVLTQPPSVSGAPGQRVTISCSGSSSNIGFNYVSWYQQLPGTAPKLLIYYNNQRPSGVPDRFSGSKSGTSASLAITGLQAEDEADYYCSTWTGTSESHVFGGGTKLTVLG
EC50 (cyno LBD [14]): 0.5 nM | IC50 (read off the curve), Jagged1 co-culture reporter gene assay (Human Notch3-Gal4-VP16 [15]): ~0.8 nM | EC50 (read off the curve) (cyno LBD [16]): ~0.3 nM | IC50 (read off the curve), Delta1 co-culture reporter gene assay (Human Notch3-Gal4-VP16 [17]): ~5 nM | Kd (cyno LBD [18]): 24 nM | binding result [19]: binds | % inhibition, Delta 1 co-culture Notch3 reporter gene assay (Human Notch3-Gal4-VP16 [8]): 85% | % inhibition, Jagged1 co-culture Notch3 reporter gene assay (Human Notch3-Gal4-VP16 [8]): 77% | IC50, Delta 1 co-culture Notch3 reporter gene assay (Human Notch3-Gal4-VP16 [8]): 5.5 nM | IC50, Jagged1 co-culture Notch3 reporter gene assay (Human Notch3-Gal4-VP16 [8]): 0.7 nM

B7: 20345 (antibody, human IgG1, kappa, V domains shown)
VH: QVQLVQSGAEVKKPGSSVKVSCKASGGTFSSYTISWVRQAPGQGLEWMGWIKPKLGMAHYAQKFQGRVTITADESTSTAYMELSSLRSEDTAVYYCARGSFWFGYWGQGTLVTVSS
VL: DIQMTQSPSSLSASVGDRVTITCRASQGINNYLNWYQQKPGKAPKLLIYDASKLQSGVPSRFSGSGSGTDFTLTISSLQPEDFATYYCQQYLQYPMTFGQGTKVEIKR
EC50 (EGF32 NRR (cyno) [3]): 0.6 nM | Kd (EGF32 NRR (cyno) [6]): 0.7 nM | % inhibition, Delta 1 co-culture Notch3 reporter gene assay (Human Notch3-Gal4-VP16 [8]): 19% | % inhibition, Jagged1 co-culture Notch3 reporter gene assay (Human Notch3-Gal4-VP16 [8]): -88% | IC50, Delta 1 co-culture Notch3 reporter gene assay (Human Notch3-Gal4-VP16 [8]): 0.3 nM | IC50, Jagged1 co-culture Notch3 reporter gene assay (Human Notch3-Gal4-VP16 [8]): 0.4 nM

B8: 20350 (antibody, human IgG1, kappa, V domains shown)
VH: B7 VH with K54R, L55W, M57A
VL: B7 VL
EC50 (EGF32 NRR (cyno) [3]): 1.4 nM | Kd (EGF32 NRR (cyno) [6]): 0.3 nM

B9: 12225 (antibody, human IgG1, kappa, V domains shown)
VH: B7 VH with K54A, L55F, M57T, H59N
VL: B7 VL
notes: also called MOR 12225
EC50 (EGF32 NRR (cyno) [3]): 0.9 nM | Kd (EGF32 NRR (cyno) [6]): 2.7 nM | % inhibition, Delta 1 co-culture Notch3 reporter gene assay (Human Notch3-Gal4-VP16 [8]): -8% | % inhibition, Jagged1 co-culture Notch3 reporter gene assay (Human Notch3-Gal4-VP16 [8]): -165% | IC50, Jagged1 co-culture Notch3 reporter gene assay (Human Notch3-Gal4-VP16 [8]): 5.8 nM

B10: 20351 (antibody, human IgG1, kappa, V domains shown)
VH: B7 VH with K54R, L55Y, M57A, H59M
VL: B7 VL
EC50 (EGF32 NRR (cyno) [3]): 0.8 nM | Kd (EGF32 NRR (cyno) [6]): 1.2 nM | % inhibition, Delta 1 co-culture Notch3 reporter gene assay (Human Notch3-Gal4-VP16 [8]): 30% | % inhibition, Jagged1 co-culture Notch3 reporter gene assay (Human Notch3-Gal4-VP16 [8]): -50% | IC50, Delta 1 co-culture Notch3 reporter gene assay (Human Notch3-Gal4-VP16 [8]): 1.4 nM | IC50, Jagged1 co-culture Notch3 reporter gene assay (Human Notch3-Gal4-VP16 [8]): 0.8 nM
